The subject of one data set is miR-155. The data set can be described thus: miR-155 expression in FLT3-ITD mutated AML cell line after treatment with AML therapeutic agents. The data set is classed as cell-based. The note with it: NOLM-14; IC50 dose, 37° C., 72 hours. On the procedure: The FLT3-ITD mutated AML cell line (NOLM-14) was treated with an IC50 dose of cytarabine, azacitidine, decitabine, venetoclax, or gilteritinib, which is used as standard therapeutic agents for AML, at 37° C. for 72 hours, followed by measuring expression levels of miR-155.

Data set [1] has as its system FLT3 mutated AML cell line MV4-11. The data set can be described thus: Cell viability of MV4-11 after transfection. Format: cell-based. On the procedure: The miRNA triggers were assayed for cytotoxicity and apoptosis induction, using the CCK-8 (Cell Counting Kit-8) (Dojindo, Kumamoto, Japan) according to the manufacturer's instruction. Cells were incubated in 96-well plates (5×10^3 cells/well) at 37° C. for 24 hours under a 5% CO2 atmosphere, followed by transfection. Three days after transfection, the medium was removed. A 10-fold dilution of CCK-8 solution in DMEM was added to the cells which were then incubated at 37° C. for 2 hours. After incubation, absorbance was read at 450 nm on Tecan Infinite M200 pro microplate reader (Mnnedorf, Switzerland).
A linear miRNA trigger (Mcl-1_155_155 or Bcl-2_155_155) which could bind to miR-155 and target mcl-1 or bcl-2 gene was prepared and transfected into the FLT3 mutated AML cell line MV4-11 which was then measured for cell viability. The results are depicted in FIGS. 31a and 31b. Sequences are listed in Tables 19 and 21 for the linear miRNA triggers prepared above, and in Tables 18 and 19 for the controls Luc-Luc-Luc and luc-155-155, respectively. Every nucleotide of the triggers and the controls were chemically modified with 2′-OMe.

Another data set concerns cleaved PARP. The data set can be described thus: Western blotting of apoptotic marker in HL-60 after siRNA knockdown. The data set is classed as cell-based. As to conditions: HL-60 cells. The protocol:
miRNA triggers were transfected into cells in the same manner as in Reference Example 4. After 72 hours, the cells were collected using a cell scraper and lysed with a RIPA buffer (NaCl 150 mM, EDTA 5 mM, Tris 50 mM, NP-40 1.0%, sodium deoxycholate 0.5%, SDS 0.1%). The cell lysate was sonicated 15 times, each for 20 sec, with a halt for 30 sec every sonication. Following centrifugation at 5,000 g for 5 min, the supernatant was taken and used to extract proteins therefrom. A total of 30-40 μg of protein sample was separated in 10-15% SDS-PAGE gel and transferred onto a PVDF membrane through a semi-dry blotting system. The membrane was blocked for 1 hour in 5% skimmed milk and incubated for 2 hours with a 1,000-fold dilution of a primary antibody in, 1% skimmed milk. […] The membrane incubated with the secondary antibody was washed three times with 1×PBST for 10 min each wash, and then reacted with Clarity Western ECL Substrate (#1705061, Bio-Rad), after which images were obtained and analyzed using ChemiDoc (Bio-rad, Hercules, USA). […]
(A western blot detects proteins with antibodies after separation by electrophoresis.)

Data set [2] concerns MOLM-14, MV4-11 and Hela cells. The data set can be described thus: Fluorescence detection after transfection of Cy5.5-labeled miRNA trigger into cells (IVIS 100). The data set is classed as cell-based. The note with it: Lipofectamine. On the procedure: With the aid of Lipofectamine, the linear miRNA trigger (5′-Cy5.5-miR-155-miR-155-PKR-3′) was transfected into the FLT3-ITD mutant AML cell lines MOLM-14 and MV4-11 and the solid cancer cell line Hela. […] Subsequent animal tests were performed with the trigger.

Data set [3] can be described thus: FACS detection of Cy5.5 in hematopoietic origin cells of injected mice. The data set is classed as in vivo, C57BL/6 (B6) mice. An excerpt: Day 4 after miRNA trigger injection in Example 6-2, mice in the miRNA trigger-administered test group (N=4) and the PBS-administered control (N=4) were sacrificed and specimens (blood cells) were taken from peripheral blood vessels, the spleen, and the bone marrow (femur blood cells). Erythrocytes were removed using an RBC lysis buffer.
The cells in peripheral blood sample were gated through three steps (step 1: debris removal, step 2: selection of single blood cell population, step 3: Cy5.5 detection) to select single blood cells of quality. Through FACS, blood cells retaining Cy5.5 were identified. The results are depicted in FIGS. 20a to 20c.
Spleen-derived hematopoietic cells and bone marrow hematopoietic cells of mice were gated in the foregoing manner and Cy5.5 was detected. The results are depicted in FIGS. 21 and 22. As shown in FIGS. 21a to 21c, 8.7-13.7% of total spleen-derived hematopoietic cells expressed Cy5.5. As in peripheral blood cells, Cy5.5 was detected mainly in lymphocytes and monocytes of the spleen-derived hematopoietic cells.

Data set [4] is described as follows: In vivo imaging after tail vein injection of Cy5.5-labeled miRNA trigger. Also on record: species or system C57BL/6 (B6) mice.
Protocol: As a negative control, PBS was injected at a dose of 200 μl into mice.
Days 1, 2, and 4 after miRNA trigger injection, in vivo imaging was performed using IVIS 100 (PerkinElmer).

{Cy5.5} = Cy5.5 fluorophore label A value given as a limit tells only on which side of the number the result lay.

As for `Nc1ccn([C@@H]2O[C@H](CO)[C@@H](O)[C@@H]2O)c(=O)n1` [cytarabine], the miR-155 expression entry in the data set on miR-155 is “did not repress miR-155 express”.
With “Mcl-1_155_155: linear miRNA trigger binding miR-155 and targeting mcl-1; SEQ ID NO 105 (UUAUGUUUCAGGUUCAGGGGGAUUAUGUUUCAGGUUCAGGGGGACCGAACUACGUAGC; all 2'-O-methyl, backbone not given here)”, in data set [1], the “apoptosis (cell viability)” value is “induce MV4-11 to undergo apoptosis”.
For the molecule “siBcl-2: siRNA targeting bcl-2; SEQ ID NO 62 (AUCAAUCUUCAGCACUCUC; listed as RNA, chemistry not given here)”, in the data set on cleaved PARP, the “expression of apoptotic marker cleaved PARP” value is given as “upregulated”.

B1: Cy5.5_PKR-155_155: linear miRNA trigger binding miR-155 and targeting PKR, labeled with Cy5.5 fluorophore; SEQ ID NO 69 (nucleic acid)
chain: UUAUGUUUCAGGUUCAGGGGGAUUAUGUUUCCAGGUUCAGGGGGAUAUGUGAGGCAGAGAACGA
modifications: all 2'-O-methyl, 5' {Cy5.5}, backbone not given here
B1: the “fluorescence in transfected cells” value in data set [2] was “Fluorescence was detected”. Moreover, in data set [3] (bone marrow, day 4), the “rate of bone marrow cells expressing Cy5.5” value was 1.0-2.0%. Further, the “Cy5.5 detected in gated lymphocytes” value in data set [3] (bone marrow, lymphocytes gated through 4 steps, day 4) is reported as 5.4-9.6%. Besides, in data set [3] (day 4 after injection), the “Cy5.5 detection in blood cells (FACS profile)” value was “detected in blood cells, especially lymphocytes and monocytes”. Moreover, the “rate of Cy5.5 detection based on total number of single blood cells” value in data set [3] (peripheral blood, day 4) was 6.2-15.9%. In data set [3] (spleen, day 4), the “spleen-derived hematopoietic cells expressing Cy5.5” value is 8.7-13.7%. Also, in data set [4], the “time Cy5.5 fluorescence detected in the mouse body” value is on record as not below 4 days and the “toxicity over the period of in vivo imaging” value is “particular toxicity was detected from none of the mice”. Besides, the “organs in which Cy5.5 was detected” value in data set [4] (Invivofectamine, 120 nM, days 1, 2 and 4) was “detected in main organs including the liver, the spleen, the bone marrow, and the heart, and the hematopoietic organ”.

Source of the values: patent US20230129651A1, “HAIRPIN STRUCTURE NUCLEIC ACID MOLECULES CAPABLE OF MODULATING TARGET GENE EXPRESSION AND USES THEREOF” (KOREA ADVANCED INSTITUTE OF SCIENCE AND TECHNOLOGY, priority 2021, published 2023).
